This is an account of results in US20210230254A1.

A word on the koff: it is a measure of how fast the partners let go of each other. The low end stands for a long-lived complex, the high end for a short-lived complex. For orientation: kon means the rate constant with which the complex forms. Broadly, the Kd is the concentration at which binding is half-saturated. Low readings indicate higher affinity, high ones lower affinity.

Chain of 3BNC117 (antibody) (VH): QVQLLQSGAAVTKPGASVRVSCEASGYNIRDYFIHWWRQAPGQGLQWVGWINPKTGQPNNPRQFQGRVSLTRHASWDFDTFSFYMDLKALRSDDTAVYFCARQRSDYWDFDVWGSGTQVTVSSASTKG
Chain of 3BNC117 (antibody) (VL): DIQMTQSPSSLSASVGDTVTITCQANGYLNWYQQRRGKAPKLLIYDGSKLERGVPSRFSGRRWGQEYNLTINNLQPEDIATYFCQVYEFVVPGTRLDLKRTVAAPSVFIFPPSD
Chain of 12A21 (antibody) (VH): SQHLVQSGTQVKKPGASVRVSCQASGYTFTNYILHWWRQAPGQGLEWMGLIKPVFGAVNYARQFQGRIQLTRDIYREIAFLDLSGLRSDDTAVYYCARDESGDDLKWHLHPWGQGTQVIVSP
Chain of 12A21 (antibody) (VL): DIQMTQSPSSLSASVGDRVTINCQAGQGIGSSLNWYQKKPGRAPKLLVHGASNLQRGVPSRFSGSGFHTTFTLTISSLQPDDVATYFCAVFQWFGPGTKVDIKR
Chain of 3BNC66 (antibody) (V domain): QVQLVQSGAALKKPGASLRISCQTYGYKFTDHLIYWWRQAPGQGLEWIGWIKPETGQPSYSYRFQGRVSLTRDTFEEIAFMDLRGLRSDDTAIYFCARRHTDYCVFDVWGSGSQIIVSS
Chain of 3BNC66 (antibody) (VL): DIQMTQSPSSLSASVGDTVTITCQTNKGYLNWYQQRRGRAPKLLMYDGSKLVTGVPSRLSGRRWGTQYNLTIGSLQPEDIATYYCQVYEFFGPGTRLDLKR
Chain of 3BNC60 (antibody) (VH): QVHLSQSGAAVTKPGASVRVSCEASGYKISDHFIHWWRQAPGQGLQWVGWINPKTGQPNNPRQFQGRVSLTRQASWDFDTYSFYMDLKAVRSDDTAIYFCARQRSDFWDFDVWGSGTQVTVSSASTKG
Chain of 3BNC60 (antibody) (VL): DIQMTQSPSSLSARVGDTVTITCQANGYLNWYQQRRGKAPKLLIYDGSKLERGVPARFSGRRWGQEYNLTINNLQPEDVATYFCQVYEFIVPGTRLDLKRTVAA
Chain of NIH45-46 (antibody) (VH): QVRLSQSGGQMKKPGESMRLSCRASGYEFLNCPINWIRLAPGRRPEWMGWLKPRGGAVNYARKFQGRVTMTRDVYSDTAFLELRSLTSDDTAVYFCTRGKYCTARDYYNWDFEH
Chain of NIH45-46 (antibody) (VL): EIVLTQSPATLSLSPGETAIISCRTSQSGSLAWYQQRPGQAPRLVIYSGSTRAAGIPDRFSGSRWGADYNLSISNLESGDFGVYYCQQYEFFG
Chain of 3BNC156 (antibody) (VH): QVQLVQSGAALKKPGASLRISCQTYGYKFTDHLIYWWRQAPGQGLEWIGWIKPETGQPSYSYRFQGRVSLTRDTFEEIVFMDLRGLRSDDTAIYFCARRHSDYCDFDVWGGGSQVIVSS
Chain of 3BNC156 (antibody) (VL): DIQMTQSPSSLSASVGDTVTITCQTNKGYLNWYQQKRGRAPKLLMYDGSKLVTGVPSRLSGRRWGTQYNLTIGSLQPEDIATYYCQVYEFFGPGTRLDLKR
Chain of 8ANC195 (antibody) (V domain): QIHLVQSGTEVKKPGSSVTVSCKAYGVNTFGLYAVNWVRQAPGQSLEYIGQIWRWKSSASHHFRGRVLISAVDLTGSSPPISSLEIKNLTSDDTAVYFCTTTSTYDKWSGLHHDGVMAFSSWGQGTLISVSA
Chain of 8ANC195 (antibody) (VL): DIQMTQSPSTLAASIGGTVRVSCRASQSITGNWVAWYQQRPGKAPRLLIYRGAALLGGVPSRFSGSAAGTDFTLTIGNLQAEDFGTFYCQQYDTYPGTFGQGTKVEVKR
Chain of 12A12 (antibody) (VH): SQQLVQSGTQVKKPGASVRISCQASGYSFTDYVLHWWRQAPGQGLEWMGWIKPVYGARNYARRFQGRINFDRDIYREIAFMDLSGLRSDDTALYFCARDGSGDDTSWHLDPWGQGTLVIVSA
Chain of 12A12 (antibody) (VL): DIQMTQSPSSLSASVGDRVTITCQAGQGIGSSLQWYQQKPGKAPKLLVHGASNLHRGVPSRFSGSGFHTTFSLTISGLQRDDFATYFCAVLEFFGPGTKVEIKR
Chain of 3BNC55 (antibody) (V domain): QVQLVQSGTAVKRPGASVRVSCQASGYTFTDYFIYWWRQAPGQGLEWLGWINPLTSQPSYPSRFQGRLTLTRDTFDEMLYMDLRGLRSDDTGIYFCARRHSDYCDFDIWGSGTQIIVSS
Chain of 3BNC55 (antibody) (VL): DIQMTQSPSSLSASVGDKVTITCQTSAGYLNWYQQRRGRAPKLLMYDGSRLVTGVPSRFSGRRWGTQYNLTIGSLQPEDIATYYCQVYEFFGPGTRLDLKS

The target of one assay is 2CC-core (HIV-1 YU2) (UniProt P35961).
Assay: not given
With 3BNC117 (antibody), the koff stood at 0.00149 s⁻¹ and the kon came out at 40500 M⁻¹ s⁻¹.

Consider 3BNC55 (antibody), for which the koff was 0.000815 s⁻¹ and the on-rate (kon) was determined as 31600 M⁻¹ s⁻¹.

The next assay has the same target. As to the kind of experiment: SPR, 2CC-core on chip, IgG injected. For orientation: In SPR one partner is held on a chip, and binding of the other changes the refractive index at the surface.
Turning to 8ANC134 (antibody), the Kd worked out at 46.1 nM, the koff is 0.000957 s⁻¹ and the on-rate (kon) stood at 20800 M⁻¹ s⁻¹.

For the substance 12A21 (antibody), the Kd was found to be 1.81 nM, the koff amounted to 0.00033 s⁻¹ and the kon was determined as 182000 M⁻¹ s⁻¹.

The substance 1B2530 (antibody) came in with a dissociation constant (Kd) of 5.9 nM, a koff of 0.000402 s⁻¹ and a kon of 68300 M⁻¹ s⁻¹.

Regarding 3BNC66 (antibody), the Kd stood at 33.6 nM, the koff amounted to 0.00133 s⁻¹ and the kon turned out to be 39600 M⁻¹ s⁻¹.

For 1NC9 (antibody), the dissociation constant (Kd) was found to be 4.61 nM, the koff stood at 0.000236 s⁻¹ and the kon came out at 51100 M⁻¹ s⁻¹.

The substance 3BNC117 (antibody) gave a Kd of 36.8 nM.

With 12A12 (antibody), the Kd is 0.0269 nM, the koff worked out at 1.7e-06 s⁻¹ and the kon is 63300 M⁻¹ s⁻¹.

Regarding 8ANC195 (antibody), the Kd came to 54.7 nM, the koff was determined as 0.00132 s⁻¹ and the kon was 24100 M⁻¹ s⁻¹.

8ANC131 (antibody) came in with a Kd of 66.1 nM, a koff of 0.00323 s⁻¹ and a kon of 48800 M⁻¹ s⁻¹.

The substance 3BNC60 (antibody) gave a Kd of 54.5 nM, a koff of 0.00164 s⁻¹ and a kon of 30200 M⁻¹ s⁻¹.

As for 3BNC55 (antibody), the Kd came out at 25.7 nM.

Consider NIH45-46 (antibody), for which the Kd worked out at 4.4 nM, the dissociation rate constant (koff) is 0.000494 s⁻¹ and the on-rate (kon) amounted to 112000 M⁻¹ s⁻¹.

3BNC156 (antibody) showed a Kd of 81.2 nM, a koff of 0.00153 s⁻¹ and a kon of 18800 M⁻¹ s⁻¹.
